# B1: DmNAT1 (Drosophila melanogaster) (protein)
# chain: MELKGVQPSNGSSNGSGNGATNAASTEKTDAEKPTAERTNWGNGLEFLMSCISVSVGLGNVWRFPFTAYENGGGAFLIPYIIVLFLIGKPMYYLEMIMGQFTSQGTVKIWSVVPGFVGVGYGQAFGTICIISYYSSLLALTLYYLFVSFQSELPWSYCRDEWTNCVNSRPQEYVDNLLTGVSLANESARNLSGIVANDETEKLQSSSELYFLNVVIKEKLDISDGVGDPDWKLTLALFVAWVVIFLVIMRGVKSSGKAAYFLALFPYVVLFVLLIRAVTLEGARDGILFFLEPQWGELLNPTVWKEAVVQCFFSLAVGSGPIIMFASYNRFDHGIYRDAMIVTTLDTLTSLLGGITIFAILGNLAHNLQIENIRDVVRSGTGLAFISYPDAISKFQAVPQLFSVLFFFMLFVLGIGSIVALQSTIVTIICDQFKGWKYWKVALTTSVCGFLMGLVYVTPGGQWILTLVDFYGGTYVVFILAIFELAGIVWVYGLQNFCDDIEFMCNRRVSLYWRVCWSFFTPVMMIIIFIYSMVTIEPIKYSELYFPEAANIAGWLLFAIGAAQFPLWGLWYISRHPQGTYWKSLKASLKPSDRWGPANPEIRREWVIFKNQKAAQRATQKDTSKLGFFWRKVANFCGSNK
# Key:
# Conditions in all cases: holding potential -50 mV; Na+ medium (about 96 mM Na+); Hill coefficient about 1
# [1] = substrate: CC(C)C[C@@H](N)C(=O)O; experiment: cells, lysate or membranes
# [2] = substrate: CC(C)C[C@H](N)C(=O)O; experiment: cells, lysate or membranes
# [3] = substrate: CC(C)[C@@H](N)C(=O)O; experiment: cells, lysate or membranes
# [4] = substrate: CC(C)[C@H](N)C(=O)O; experiment: cells, lysate or membranes
# [5] = substrate: CC[C@H](C)[C@H](N)C(=O)O; experiment: cells, lysate or membranes
# [6] = substrate: C[C@H](N)C(=O)O; experiment: cells, lysate or membranes
# [7] = substrate: N[C@@H](CO)C(=O)O; experiment: cells, lysate or membranes
# [8] = substrate: N[C@H](CO)C(=O)O; experiment: cells, lysate or membranes
# [9] = substrate: N[C@H](Cc1ccccc1)C(=O)O; experiment: cells, lysate or membranes
# [10] = substrate: O=C(O)[C@@H]1CCCN1; experiment: cells, lysate or membranes
# [11] = substrate: O=C(O)[C@H]1CCCN1; experiment: cells, lysate or membranes
# [12] = substrate: CSCC[C@@H](N)C(=O)O; format: cell-based, Drosophila melanogaster
# [13] = substrate: CSCC[C@H](N)C(=O)O; format: cell-based, Drosophila melanogaster
# [14] = substrate: N[C@@H](CS)C(=O)O; format: cell-based, Drosophila melanogaster
# [15] = substrate: N[C@@H](Cc1c[nH]cn1)C(=O)O; format: cell-based, Drosophila melanogaster
# [16] = substrate: N[C@@H](Cc1ccc(O)c(O)c1)C(=O)O; format: cell-based, Drosophila melanogaster
# [17] = substrate: N[C@@H](Cc1ccc(O)cc1)C(=O)O; format: cell-based, Drosophila melanogaster
# [18] = substrate: N[C@@H](Cc1ccccc1)C(=O)O; format: cell-based, Drosophila melanogaster
# [19] = substrate: N[C@H](CS)C(=O)O; format: cell-based, Drosophila melanogaster
# [20] = substrate: N[C@H](Cc1ccc(O)cc1)C(=O)O; format: cell-based, Drosophila melanogaster
protein,measurement,setting,value
B1,K0.5,[1],92.2 ± 34.8 µM
same,K0.5,[2],126.2 ± 39.8 µM
same,K0.5,[3],170.2 ± 38.3 µM
same,K0.5,[4],96.8 ± 20.2 µM
same,K0.5,[5],130.1 ± 37.5 µM
same,K0.5,[6],255.6 ± 76.8 µM
same,K0.5,[7],119.7 ± 18.6 µM
same,K0.5,[8],128.1 ± 21.3 µM
same,K0.5,[9],55.2 ± 10.3 µM
same,K0.5,[10],127.6 ± 44.9 µM
same,K0.5,[11],142.4 ± 38.5 µM
same,K0.5,[12],24.7 ± 9.9 µM
same,K0.5,[13],39.8 ± 12.7 µM
same,K0.5,[14],199.1 ± 18.8 µM
same,K0.5,[15],188.5 ± 37.9 µM
same,K0.5,[16],242.3 ± 57.9 µM
same,K0.5,[17],96.8 ± 17.9 µM
same,K0.5,[18],58.3 ± 5.3 µM
same,K0.5,[19],141.0 ± 28.6 µM
same,K0.5,[20],64.3 ± 15.3 µM
